Data from patent US20220160842A1, “METHOD OF TREATING INFECTIVE ENDOCARDITIS” (priority 2019, published 2022).

How the values were obtained:
[1] = test system: S. capitis; assay: MIC by broth microdilution; format: cell-based, Staphylococcus capitis; settings: S. capitis, N=13
Description: (§1) Minimal inhibitory concentrations (MICs) of exebacase against staphylococci were determined by broth microdilution (BMD) using a nonstandard antimicrobial susceptibility testing (AST) medium comprised of cation-adjusted Mueller Hinton broth (caMHB) supplemented with horse serum (Sigma Aldrich) and dithiothreitol (DTT; Sigma Aldrich) to final concentrations of 25% and 0.5 mM, respectively. This medium, referred to as caMHB-HSD, is approved for use in exebacase AST by the Clinical and Laboratory Standards Institute (CLSI) (CLSI. 2017, Jan. 16-17. AST Subcommittee Working Group Meetings and Plenary. AST Meeting Files & Resources, clsi.org/education/microbiology/ast/ast-meeting-files-resources/. Additional supplementation with 2.5% lysed red blood cells (Remel™, ThermoFisher) was included for analyses of streptococcal isolates, as recommended by CLSI. See CLSI, 2015. Methods for Dilution Antimicrobial Susceptibility Tests for Bacteria That Grow Aerobically, 10th Edition. Clinical and Laboratory Standards Institute, Wayne, Pa.
(§2) Daptomycin (Sigma Aldrich) and vancomycin hydrochloride (Sigma Aldrich) were tested following the reference BMD method for each. See CLSI. 2015. Methods for Dilution Antimicrobial Susceptibility Tests for Bacteria That Grow Aerobically, 10th Edition. Clinical and Laboratory Standards Institute, Wayne, Pa.

[2] = test system: S. salivarius; assay: MIC by broth microdilution; format: cell-based, Streptococcus salivarius; settings: S. salivarius (viridans), N=12
Description: as §1, §2

[3] = test system: S. aureus (MRSA); assay: MIC by broth microdilution; format: cell-based, Staphylococcus aureus; settings: S. aureus (MRSA), N=74
Description: as §1, §2

[4] = test system: MRSA strain MW2; assay: Infective endocarditis rabbit model, CF-301 in series with daptomycin (Example 2); format: in vivo, rabbits
Description: The rational for selection of the daptomycin dose is as follows. Daptomycin pilot dose-response experiments were performed over a range from 1 mg/kg to 10 mg/kg, administered intravenously, once daily for 4 days in the infective endocarditis rabbit model described below, which was caused by the MRSA strain, MW2. FIG. 2 depicts data for individual animals, plotted as treatment regimen versus log10 CFU/g tissue (mean±SEM are shown). From these studies, a daptomycin dose-response was defined. […] In the rabbit infective endocarditis model, a daptomycin-alone dose of 4 mg/kg administered intravenously provided about 0.25 to 1.45 log10 reduction in bacterial burden compared to vehicle-treated controls.
A well-described indwelling transcarotid artery-to-left ventricle catheter-induced model of aortic valve infective endocarditis was used in rabbits. See Xiong et al., 2011, AAC, 55:P5325-5330. At 48 hours after catheter placement, infective endocarditis was induced by intravenous inoculums of about 2×10^5 CFU (the induction of ID95 of MRSA strain MW2 in this model). […] Daptomycin administration was continued once a day for 4 days. At 24 hours after the last dose of daptomycin, animals were humanely euthanized and cardiac vegetations, kidneys, and spleens were sterilely removed and quantitatively cultured. Bacterial density for each organ for the different treatment groups were calculated as mean log10 CFU/g of tissue (±95% confidence interval).

[5] = test system: MRSA strain MW2 (CA-MRSA; USA400); settings: cited from earlier work
[6] = test system: S. gordonii; assay: MIC by broth microdilution; format: cell-based, Streptococcus gordonii; settings: S. gordonii (viridans), N=11
Description: as §1, §2

[7] = test system: S. lugdunensis; assay: MIC by broth microdilution; format: cell-based, Staphylococcus lugdunensis; settings: S. lugdunensis, N=49
Description: as §1, §2

[8] = test system: S. dysgalactiae; assay: MIC by broth microdilution; format: cell-based, Streptococcus dysgalactiae; settings: S. dysgalactiae (group G), N=22
Description: as §1, §2

[9] = test system: MRSA strain MW2; assay: Left-sided catheter-induced IE model due to MRSA, CF-301 dose strategies plus DAP (Example 4); format: in vivo, rabbits; settings: all CF-301 doses given in addition to DAP
Description: Briefly, female New Zealand White rabbits (Harlan Laboratories; 2.3 to 2.5 kg body weight) underwent transcarotid-transaortic valve catheterization, and IE was induced by IV infection of ˜1-2×10^5 cfu of MW2 at 48 hours (h) after catheterization. […] See also FIG. 4.
On day 5, animals were sacrificed, and target tissues (cardiac vegetations, kidney and spleen) were removed and quantitatively cultured. Tissue MRSA counts are given as the mean log10 CFU/g of tissue±SD).
A two-tailed Student's t test was used to analyze the tissue MRSA counts between different groups. P values <0.05 were considered significant. No adjustment was made for all the P values reported in this study.

[10] = test system: S. mitis; assay: MIC by broth microdilution; format: cell-based, Streptococcus mitis; settings: S. mitis (viridans), N=18
Description: as §1, §2

[11] = test system: S. anginosus; assay: MIC by broth microdilution; format: cell-based, Streptococcus anginosus; settings: S. anginosus (viridans), N=10
Description: as §1, §2

[12] = test system: E. faecalis; assay: MIC by broth microdilution; format: cell-based, Enterococcus faecalis; settings: E. faecalis (formerly group D), N=18
Description: as §1, §2

[13] = test system: S. gallolyticus; assay: MIC by broth microdilution; format: cell-based, Streptococcus gallolyticus; settings: S. gallolyticus (bovis), N=19
Description: as §1, §2

[14] = test system: S. oralis; assay: MIC by broth microdilution; format: cell-based, Streptococcus oralis; settings: S. oralis (viridans), N=15
Description: as §1, §2

[15] = test system: S. haemolyticus; assay: MIC by broth microdilution; format: cell-based, Staphylococcus haemolyticus; settings: S. haemolyticus, N=36
Description: as §1, §2

[16] = CF-301 0.09 mg/kg 1 hour prior to the initial dose of DAP 4 mg/kg IV QD x 4 days
[17] = CF-301 0.09 mg/kg 2 hours after the initial dose of DAP 4 mg/kg IV QD x 4 days
[18] = CF-301 0.09 mg/kg 2 hours prior to the initial dose of DAP 4 mg/kg IV QD x 4 days
[19] = CF-301 0.09 mg/kg 4 hours after the initial dose of DAP 4 mg/kg IV QD x 4 days
[20] = CF-301 0.09 mg/kg 4 hours prior to the initial dose of DAP 4 mg/kg IV QD x 4 days
[21] = CF-301 0.09 mg/kg immediately after the initial dose of DAP 4 mg/kg IV QD x 4 days

B1: CF-301: anti-staphylococcal lysin encoded within a prophage of the Streptococcus suis genome, SEQ ID NO: 2 with or without initial methionine (protein, listed as Streptococcus suis)
chain: MTTVNEALNNVRAQVGSGVSVGNGECYALASWYERMISPDATVGLGAGVGWVSGAIGDTISAKNIGSSYNWQANGWTVSTSGPFKAGQIVTLGATPGNPYGHVVIVEAVDGDRLTILEQNYGGKRYPVRNYYSAASYRQQVVHYITPPGTVAQSAPNLAGSRSYRETGTMTVTVDALNVRRAPNTSGEIVAVYKRGESFDYDTVIIDVNGYVWVSYIGGSGKRNYVATGATKDGKRFGNAWGTFK
In the case of B1, the MIC50 [1] is reported as 1 µg/mL, the MIC90 [1] is reported as 2 µg/mL and the “MIC Range” value [1] is reported as 0.25 to 4 µg/mL. For the same molecule, the MIC50 [2] was 2 µg/mL, the MIC90 [2] was 8 µg/mL and the “MIC Range” value [2] was 0.5 to 8 µg/mL. The MIC50 [3] was 0.5 µg/mL, the MIC90 [3] was 1 µg/mL and the “MIC Range” value [3] was 0.5 to 2 µg/mL. For the same molecule, the “MRSA density, Mean Log10 CFU/g tissue ± STD, Kidneys” value [4, 16] was 3.53 ± 0.59 Log10 CFU/g tissue, the “MRSA density, Mean Log10 CFU/g tissue ± STD, Spleen” value [4, 16] was 3.55 ± 0.74 Log10 CFU/g tissue and the “MRSA density, Mean Log10 CFU/g tissue ± STD, Vegetation” value [4, 16] was 4.16 ± 0.82 Log10 CFU/g tissue. The “MRSA density, Mean Log10 CFU/g tissue ± STD, Kidneys” value [4, 17] was 2.29 ± 0.87 Log10 CFU/g tissue, the “MRSA density, Mean Log10 CFU/g tissue ± STD, Spleen” value [4, 17] was 2.23 ± 1.09 Log10 CFU/g tissue and the “MRSA density, Mean Log10 CFU/g tissue ± STD, Vegetation” value [4, 17] was 2.25 ± 1.39 Log10 CFU/g tissue. For the same molecule, the “MRSA density, Mean Log10 CFU/g tissue ± STD, Kidneys” value [4, 18] was 3.48 ± 0.47 Log10 CFU/g tissue, the “MRSA density, Mean Log10 CFU/g tissue ± STD, Spleen” value [4, 18] was 3.31 ± 0.57 Log10 CFU/g tissue and the “MRSA density, Mean Log10 CFU/g tissue ± STD, Vegetation” value [4, 18] was 3.54 ± 0.68 Log10 CFU/g tissue. For the same molecule, the “MRSA density, Mean Log10 CFU/g tissue ± STD, Kidneys” value [4, 19] was 3.78 ± 0.51 Log10 CFU/g tissue, the “MRSA density, Mean Log10 CFU/g tissue ± STD, Spleen” value [4, 19] was 3.49 ± 0.33 Log10 CFU/g tissue and the “MRSA density, Mean Log10 CFU/g tissue ± STD, Vegetation” value [4, 19] was 4.31 ± 0.89 Log10 CFU/g tissue. The “MRSA density, Mean Log10 CFU/g tissue ± STD, Kidneys” value [4, 20] was 2.97 ± 0.32 Log10 CFU/g tissue, the “MRSA density, Mean Log10 CFU/g tissue ± STD, Spleen” value [4, 20] was 3.18 ± 0.35 Log10 CFU/g tissue and the “MRSA density, Mean Log10 CFU/g tissue ± STD, Vegetation” value [4, 20] was 3.45 ± 0.63 Log10 CFU/g tissue. For the same molecule, the “MRSA density, Mean Log10 CFU/g tissue ± STD, Kidneys” value [4, 21] was 2.77 ± 0.65 Log10 CFU/g tissue, the “MRSA density, Mean Log10 CFU/g tissue ± STD, Spleen” value [4, 21] was 2.60 ± 0.17 Log10 CFU/g tissue and the “MRSA density, Mean Log10 CFU/g tissue ± STD, Vegetation” value [4, 21] was 3.23 ± 0.36 Log10 CFU/g tissue. The “MRSA densities in all three target tissues as compared to the controls and daptomycin alone” value ([4]; single dose of CF-301 added to daptomycin regimen, all time-points tested) was “significantly reduced”, the MIC [5] was 1.0 µg/mL and the MIC50 [6] was 4 µg/mL. For the same molecule, the MIC90 [6] was 8 µg/mL, the “MIC Range” value [6] was 0.5 to 8 µg/mL and the MIC50 [7] was 1 µg/mL. For the same molecule, the MIC90 [7] was 1 µg/mL, the “MIC Range” value [7] was 0.25 to 2 µg/mL and the MIC50 [8] was 1 µg/mL. The MIC90 [8] was 2 µg/mL, the “MIC Range” value [8] was 1 to 2 µg/mL and the “further reduction of MRSA densities in all target tissues vs DAP alone” value [9] was “about 3 log10 cfu/g”. For the same molecule, the “reduction of MRSA densities in all target tissues vs vehicle control groups” value [9] was “about 6 log10 cfu/g”, the MIC50 [10] was 2 µg/mL and the MIC90 [10] was 8 µg/mL. The “MIC Range” value [10] was 0.5 to 64 µg/mL, the MIC50 [11] was 32 µg/mL and the MIC90 [11] was 64 µg/mL. The “MIC Range” value [11] was 1 to 64 µg/mL, the MIC50 [12] was 16 µg/mL and the MIC90 [12] was 64 µg/mL. The “MIC Range” value [12] was 1 to 256 µg/mL, the MIC50 [13] was 64 µg/mL and the MIC90 [13] was greater than 512 µg/mL. The MIC50 [14] was 4 µg/mL, the MIC90 [14] was 64 µg/mL and the “MIC Range” value [14] was 0.5 to 64 µg/mL. For the same molecule, the MIC50 [15] was 0.5 µg/mL, the MIC90 [15] was 1 µg/mL and the “MIC Range” value [15] was 0.25 to 2 µg/mL.
